Where a chain is given by its changes, count along the chain named. In names and notes the source's numbering stands.
B1: Gd11olS (germacradien-11-ol synthase; N-terminal domain of geosmin synthase) (Streptomyces coelicolor A3(2); V187A) (protein)
chain: MTQQPFQLPHFYLPHPARLNPHLDEARAHSTTWAREMGMLEGSGVWEQSDLEAHDYGLLCAYTHPDCDGPALSLITDWYVWVFFFDDHFLEKYKRSQDRLAGKAHLDRLPLFMPLDDAAGMPEPRNPVEAGLADLWTRTVPAMSADWRRRFAVATEHLLNESMWELSNINEGRVANPVEYIEMRRKAGGAPWSAGLVEYATAEVPAAVAGTRPLRVLMETFSDAVHLRNDLFSYQREVEDEGELSNGVLVLETFFGCTTQEAADLVNDVLTSRLHQFEHTAFTEVPAVALEKGLTPLEVAAVGAYTKGLQDWQSGGHEWHMRSSRYMNKGERPLAGWQALTGPGTSAADVGALLADAVAQRARSYT
notes: N-terminal domain, residues 1-366 of geosmin synthase; codon-optimized synthetic gene in pET28a, expressed in E. coli, purified to homogeneity; tag details in supplement
B2: Gd11olS (germacradien-11-ol synthase; N-terminal domain of geosmin synthase) (Streptomyces coelicolor A3(2); Q313A) (protein)
chain: B1 chain with A187V, Q313A
notes: as for B1
B3: Gd11olS (germacradien-11-ol synthase; N-terminal domain of geosmin synthase) (Streptomyces coelicolor A3(2); H320A) (protein)
chain: B1 chain with A187V, H320A
notes: as for B1
B4: Gd11olS (germacradien-11-ol synthase; N-terminal domain of geosmin synthase) (Streptomyces coelicolor A3(2); W312A) (protein)
chain: B1 chain with A187V, W312A
notes: as for B1
B5: Gd11olS (germacradien-11-ol synthase; N-terminal domain of geosmin synthase) (Streptomyces coelicolor A3(2); Q313N) (protein)
chain: B1 chain with A187V, Q313N
notes: as for B1
B6: Gd11olS (germacradien-11-ol synthase; N-terminal domain of geosmin synthase) (Streptomyces coelicolor A3(2); H320F) (protein)
chain: B1 chain with A187V, H320F
notes: as for B1
B7: Gd11olS (germacradien-11-ol synthase; N-terminal domain of geosmin synthase) (Streptomyces coelicolor A3(2)) (protein)
chain: B1 chain with A187V
notes: as for B1
B8: Gd11olS (germacradien-11-ol synthase; N-terminal domain of geosmin synthase) (Streptomyces coelicolor A3(2); G188S) (protein)
chain: B1 chain with A187V, G188S
notes: as for B1
B9: Gd11olS (germacradien-11-ol synthase; N-terminal domain of geosmin synthase) (Streptomyces coelicolor A3(2); W312F) (protein)
chain: B1 chain with A187V, W312F
notes: as for B1
B10: Gd11olS (germacradien-11-ol synthase; N-terminal domain of geosmin synthase) (Streptomyces coelicolor A3(2); G188A) (protein)
chain: B1 chain with A187V, G188A
notes: as for B1
B11: Gd11olS (germacradien-11-ol synthase; N-terminal domain of geosmin synthase) (Streptomyces coelicolor A3(2); R228V) (protein)
chain: B1 chain with A187V, R228V
notes: as for B1

Substrate: CC(C)=CCC/C(C)=C/CC/C(C)=C/CO[P@@](=O)(O)OP(=O)(O)O
Assay: steady-state kinetics of purified enzyme (details in supplement)
Type: biochemical, Streptomyces coelicolor
Details: Mg2+-dependent enzyme; assay conditions in supplement
Text: steady-state kinetics of purified enzyme (details in supplement) on Gd11olS (germacradien-11-ol synthase; N-terminal domain of geosmin synthase)

Row | Protein | Km | kcat
1 | B1 | 0.3 ± 0.06 µM | 0.000194 ± 1e-07 s⁻¹
2 | B2 | 1.10 ± 0.14 µM | 6.9e-05 ± 2e-07 s⁻¹
3 | B3 | 1.12 ± 0.10 µM | 3.8e-05 ± 1e-07 s⁻¹
4 | B4 | 0.4 ± 0.07 µM | 4.02e-05 ± 1e-07 s⁻¹
5 | B5 | 0.5 ± 0.07 µM | 5.02e-05 ± 1e-07 s⁻¹
6 | B6 | 1.8 ± 0.5 µM | 2.3e-05 ± 2e-07 s⁻¹
7 | B7 | 0.5 ± 0.08 µM | 0.000524 ± 2e-07 s⁻¹
8 | B8 | 5.7 ± 0.9 µM | 4.08e-05 ± 2e-06 s⁻¹
9 | B9 | 0.9 ± 0.09 µM | 0.000255 ± 6e-07 s⁻¹
10 | B10 | 3.8 ± 1.5 µM | 3.7e-05 ± 5e-06 s⁻¹
11 | B11 | 0.8 ± 0.10 µM | 0.0001814 ± 4e-07 s⁻¹

— article PMC7886051, “Redesigning the Molecular Choreography to Prevent Hydroxylation in Germacradien-11-ol Synthase Catalysis” (ACS Catalysis, 2021)
